The results in this text go back to PMC6255954 (British Journal of Pharmacology, 2018).

The target in test [1] is T1, GFP‐tagged human NOP receptor in HEK cells (HEK_(hNOP‐GFP)) (human, UniProt P41146 1-370).
T1 construct: nociceptin/orphanin FQ (N/OFQ) peptide receptor (NOP), human, GFP-tagged, recombinant in HEK cells; source: HEK cells expressing GFP-tagged NOP; live cells on coverslips (confocal, FRET) and radioligand displacement
In words: radioligand binding; displacement of [3H]-N/OFQ in HEK_(hNOP) and HEK_(hNOP-GFP) cells, room temperature. The note with it: one partner purified.

The target of test [2] is T2, human N/OFQ peptide (NOP) receptor, recombinant in HEK cells (HEK_(hNOP)) (human, UniProt P41146 1-370).
T2 construct: nociceptin/orphanin FQ (N/OFQ) peptide receptor (NOP), human, recombinant in HEK cells, no GFP; also called HEKNOP; source: HEK cells expressing the recombinant NOP receptor; live cells on coverslips (confocal) and radioligand displacement
The description is as above. The note with it: one partner purified.

The target in test [3] is T1, GFP‐tagged human NOP receptor in HEK …. Put plainly: confocal microscopy of a fluorescent ligand on live cells; N/OFQ_(ATTO594) added cumulatively (1 pM-100 nM) to HEK_(hNOP) or HEK_(hNOP-GFP) cells on coverslips, 5 min at 4°C in Krebs buffer pH 7.4, washed, imaged with the 594 nm laser; corrected total cell fluorescence; saturation curve. The note with it: one partner purified.

In test [4] the target is T2, human N/OFQ peptide (NOP) receptor, …. The test is described as above. The settings on record: one partner purified.
Test [5] concerns the target T3, human N/OFQ peptide (NOP) receptor, recombinant in CHO cells (CHO_(hNOP)) (human, UniProt P41146 1-370).
T3 construct: nociceptin/orphanin FQ (N/OFQ) peptide receptor (NOP), human, recombinant in CHO cells; used as cell membranes; source: CHO cells, stably transfected, cell membranes
Put plainly: radioligand binding; displacement of ~0.8 nM [3H]-N/OFQ from CHO_(hNOP) membranes (20-40 ug protein) by 1 pM-10 uM ligand; 50 mM Tris-HCl pH 7.4 with 0.5% BSA, room temperature, 1 h, vacuum filtration; non-specific binding with 1 uM N/OFQ. The note with it: one partner purified.

In test [6] the target is T1, GFP‐tagged human NOP receptor in HEK …. Put plainly: cell-based or functional assay.

T1 sequence (P41146 whole entry): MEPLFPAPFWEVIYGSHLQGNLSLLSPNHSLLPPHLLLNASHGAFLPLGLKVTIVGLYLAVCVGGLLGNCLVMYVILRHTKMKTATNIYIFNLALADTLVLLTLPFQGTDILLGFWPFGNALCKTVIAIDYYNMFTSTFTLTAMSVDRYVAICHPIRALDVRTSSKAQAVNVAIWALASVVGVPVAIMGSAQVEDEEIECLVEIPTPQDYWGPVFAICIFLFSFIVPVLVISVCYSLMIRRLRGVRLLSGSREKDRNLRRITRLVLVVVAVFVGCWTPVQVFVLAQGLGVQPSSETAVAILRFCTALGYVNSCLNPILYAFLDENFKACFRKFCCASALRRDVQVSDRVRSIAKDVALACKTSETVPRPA
T2 sequence (P41146 whole entry): as above
T3 sequence (P41146 whole entry): as above

As to FGGFTGARKSARKLANQC (ATTO 594 on Cys18; C-terminal amide (NH2)) [[Cys(ATTO 594)^18]N/OFQ‐NH2], the pKi in test [1] was 8.98; in test [2] it was 9.14; in test [5], 9.21. Moreover, the pKd in test [3] was 8.53; in test [4], 9.51. Also, in test [6], the “pEC50, inhibition of forskolin-stimulated cAMP formation in HEK_(hNOP-GFP) cells, 0.1 pM-1 μM, 37°C, 15 min” value was 9.73.

In general, pKi refers to the negative decadic logarithm of the Ki, by convention in mol/L. A word on the pKd: it is the Kd on a negative log10 scale, so that one unit is a factor of ten.
